Results on 49 variants are retold here after the Human Domainome abundance scans (Beltran et al. 2025).

The chains are these.
B1: Cyclin-F, residues 28 to 80; numbered along this chain, P41002 (parent)
chain: RNLTILSLPEDVLFHILKWLSVEDILAVRAVHSQLKDLVDNHASVWACASFQE

± gives the uncertainty stated by the source.

In the data set the parent is B1. Description: abundance fitness (aPCA) (normalised: wild type 0, dead -1); higher = more abundant; growth selection in yeast, the domain comes from the species named. The following applies: Homo sapiens.
For the variant RNLTILSLPEDVLFHILKWLSVEDILAVRAVHSQLKNLVDNHASVWACASFQE [D37N], the abundance fitness is -0.017 ± 0.13. Turning to RNLTILSLPEDVLFHILKWLSVEDILAVRAVHSQLKVLVDNHASVWACASFQE [D37V], the abundance fitness is -0.049 ± 0.1.

Take RNLTILSLPEDVLFHILKWLSVEDILAVRAVHSQLKFLVDNHASVWACASFQE [D37F]: the abundance fitness was -0.222 ± 0.16. For the variant RNLTILSLPEDVLFHILKWLSVEDILAVRAVHSQLKCLVDNHASVWACASFQE [D37C], the abundance fitness was found to be 0.012 ± 0.13. With RNLTILSLPEDVLFHILKWLSVEDILAVRAVHSQLKWLVDNHASVWACASFQE [D37W] the figure was -0.42 ± 0.13; with RNLTILSLPEDVLFHILKWLSVEDILAVRAVHSQLKSLVDNHASVWACASFQE [D37S], 0.006 ± 0.098; with RNLTILSLPEDVLFHILKWLSVEDILAVRAVHSQLKMLVDNHASVWACASFQE [D37M], 0.158 ± 0.14. Next, RNLTILSLPEDVLFHILKWLSVEDILAVRAVHSQLKALVDNHASVWACASFQE [D37A]: 0.027 ± 0.098; RNLTILSLPEDVLFHILKWLSVEDILAVRAVHSQLKTLVDNHASVWACASFQE [D37T]: 0.076 ± 0.12; RNLTILSLPEDVLFHILKWLSVEDILAVRAVHSQLKGLVDNHASVWACASFQE [D37G]: -0.044 ± 0.085. With RNLTILSLPEDVLFHILKWLSVEDILAVRAVHSQLKPLVDNHASVWACASFQE [D37P] the figure was -1.02 ± 0.2; with RNLTILSLPEDVLFHILKWLSVEDILAVRAVHSQLKLLVDNHASVWACASFQE [D37L], 0.03 ± 0.089; with RNLTILSLPEDVLFHILKWLSVEDILAVRAVHSQLKHLVDNHASVWACASFQE [D37H], -0.086 ± 0.17. Consider RNLTILSLPEDVLFHILKWLSVEDILAVRAVHSQLKKLVDNHASVWACASFQE [D37K], for which the abundance fitness worked out at 0.356 ± 0.15.

Turning to RNLTILSLPEDVLFHILKWLSVEDILAVRAVHSQLKQLVDNHASVWACASFQE [D37Q], the abundance fitness amounted to 0.075 ± 0.17. For the variant RNLTILSLPEDVLFHILKWLSVEDILAVRAVHSQLKILVDNHASVWACASFQE [D37I], the abundance fitness turned out to be 0.228 ± 0.34. As to RNLTILSLPEDVLFHILKWLSVEDILAVRAVHSQLIDLVDNHASVWACASFQE [K36I], the abundance fitness is -0.986 ± 0.23. Next, RNLTILSLPEDVLFHILKWLSVEDILAVRAVHSQLYDLVDNHASVWACASFQE [K36Y]: -0.883 ± 0.23; RNLTILSLPEDVLFHILKWLSVEDILAVRAVHSQLCDLVDNHASVWACASFQE [K36C]: -0.915 ± 0.18; RNLTILSLPEDVLFHILKWLSVEDILAVRAVHSQLRDLVDNHASVWACASFQE [K36R]: 0.054 ± 0.084. Next, RNLTILSLPEDVLFHILKWLSVEDILAVRAVHSQLVDLVDNHASVWACASFQE [K36V]: -0.785 ± 0.12. Next, RNLTILSLPEDVLFHILKWLSVEDILAVRAVHSQLLDLVDNHASVWACASFQE [K36L]: -0.625 ± 0.12; RNLTILSLPEDVLFHILKWLSVEDILAVRAVHSQLTDLVDNHASVWACASFQE [K36T]: -0.723 ± 0.16. In the case of RNLTILSLPEDVLFHILKWLSVEDILAVRAVHSQLQDLVDNHASVWACASFQE [K36Q], the abundance fitness was -0.609 ± 0.23. With RNLTILSLPEDVLFHILKWLSVEDILAVRAVHSQLWDLVDNHASVWACASFQE [K36W] the figure was -0.626 ± 0.22; with RNLTILSLPEDVLFHILKWLSVEDILAVRAVHSQLMDLVDNHASVWACASFQE [K36M], -0.932 ± 0.2; with RNLTILSLPEDVLFHILKWLSVEDILAVRAVHSQLADLVDNHASVWACASFQE [K36A], -0.561 ± 0.13. Next, RNLTILSLPEDVLFHILKWLSVEDILAVRAVHSQLHDLVDNHASVWACASFQE [K36H]: -0.445 ± 0.15; RNLTILSLPEDVLFHILKWLSVEDILAVRAVHSQLPDLVDNHASVWACASFQE [K36P]: -0.573 ± 0.16.

As to RNLTILSLPEDVLFHILKWLSVEDILAVRAVHSQLSDLVDNHASVWACASFQE [K36S], the abundance fitness is -0.788 ± 0.11.

Regarding RNLTILSLPEDVLFHILKWLSVEDILAVRAVHSQLGDLVDNHASVWACASFQE [K36G], the abundance fitness was -0.891 ± 0.14.

With RNLTILSLPEDVLFHILKWLSVEDILAVRAVHSQLNDLVDNHASVWACASFQE [K36N], the abundance fitness is -0.779 ± 0.23. Next, RNLTILSLPEDVLFHILKWLSVEDILAVRAVHSQLEDLVDNHASVWACASFQE [K36E]: -0.771 ± 0.21; RNLTILSLPEDVLFHILKWLSVEDILAVRAVHSQLDDLVDNHASVWACASFQE [K36D]: -0.886 ± 0.28. With RNLTILSLPEDVLFHILKWLSVEDILAVRAVHSQLFDLVDNHASVWACASFQE [K36F] the figure was -0.811 ± 0.21.

For RNLTILSLPEDVLFHILKWLSVEDILAVRAVHMQLKDLVDNHASVWACASFQE [S33M], the abundance fitness was -0.72 ± 0.089. For RNLTILSLPEDVLFHILKWLSVEDILAVRAVHQQLKDLVDNHASVWACASFQE [S33Q], the abundance fitness was -0.672 ± 0.11. RNLTILSLPEDVLFHILKWLSVEDILAVRAVHRQLKDLVDNHASVWACASFQE [S33R]: the abundance fitness is -0.158 ± 0.061.

Consider RNLTILSLPEDVLFHILKWLSVEDILAVRAVHTQLKDLVDNHASVWACASFQE [S33T], for which the abundance fitness is -0.247 ± 0.08. With RNLTILSLPEDVLFHILKWLSVEDILAVRAVHYQLKDLVDNHASVWACASFQE [S33Y] the figure was -0.791 ± 0.12. As to RNLTILSLPEDVLFHILKWLSVEDILAVRAVHWQLKDLVDNHASVWACASFQE [S33W], the abundance fitness is -0.48 ± 0.078.

Turning to RNLTILSLPEDVLFHILKWLSVEDILAVRAVHIQLKDLVDNHASVWACASFQE [S33I], the abundance fitness was -0.855 ± 0.14. Next, RNLTILSLPEDVLFHILKWLSVEDILAVRAVHNQLKDLVDNHASVWACASFQE [S33N]: -0.67 ± 0.14; RNLTILSLPEDVLFHILKWLSVEDILAVRAVHHQLKDLVDNHASVWACASFQE [S33H]: -0.443 ± 0.11. With RNLTILSLPEDVLFHILKWLSVEDILAVRAVHVQLKDLVDNHASVWACASFQE [S33V] the figure was -0.544 ± 0.066. With RNLTILSLPEDVLFHILKWLSVEDILAVRAVHKQLKDLVDNHASVWACASFQE [S33K] the figure was -0.294 ± 0.091; with RNLTILSLPEDVLFHILKWLSVEDILAVRAVHSLLKDLVDNHASVWACASFQE [Q34L], -0.368 ± 0.064; with RNLTILSLPEDVLFHILKWLSVEDILAVRAVHSYLKDLVDNHASVWACASFQE [Q34Y], -0.374 ± 0.12.

With RNLTILSLPEDVLFHILKWLSVEDILAVRAVHSTLKDLVDNHASVWACASFQE [Q34T], the abundance fitness is 0.004 ± 0.071.
